Measurements taken from patent publication US7871610B2, “Antibodies to Tie1 ectodomain” (Dyax Corp., priority 2003, dated 2011).

Columns and labels:
[1] = target: Tie1 (Homo sapiens, UniProt P35590); experiment: Tie1 phosphorylation assay in transfected COS1 cells; assay type: cell-based; conditions: COS1 cells with V5-tagged full length Tie1, serum starved, E3 IgG 200 ng/ml
Description: COS1 cells were transfected with pcDNA3-Tie1-V5. After 24 h of transfection, the cells were serum starved for 8 h and then treated with E3 IgG. For the Tie1 phosphorylation assay, HDMVECs were cultured on 10 cm dishes to near confluence, starved (8-16 h) in serum free medium and stimulated as indicated. After the stimulations, the cells were lysed in lysis buffer (RIPA-DOC: 50 mM Tris-HCl pH 8.0, 150 mM NaCl, 1% Triton-X-100, 0.1% SDS, 0.5% DOC, 10 mM EDTA, supplemented with aprotinin, leupeptin, PMSF and sodium vanadate). Clarified lysates from transfected COS1 cells or HDMVECs were immunoprecipitated with anti-V5 or anti-Tie1 B9, respectively. Proteins were separated by SDS-PAGE, transferred to nitrocellulose and immunoblotted using the anti-phosphotyrosine and anti-Tie1 (R&D systems) antibodies.
To test if the E3 IgG binding to the extracellular region of Tie1 induces autophosphorylation of Tie1, the Tie1 receptor phosphorylation level in response to E3 IgG treatment was studied in transiently transfected COS1 cells and human primary endothelial cells. COS1 cells were transfected with an expression vector containing a V5-tagged full length Tie1 cDNA, and, after serum starvation, the cells were treated with E3 IgG (200 ng/ml). […]

[2] = target: T1, recombinant human Tie1-Fc (Homo sapiens, UniProt P35590); experiment: BIAcore, parental and germlined E3b Fabs on human Tie-1/Fc; assay type: binding; conditions: parental and germlined E3b Fabs, human Tie-1/Fc
T1 construct: selected against the Tie1 extracellular domain fused to human Fc or to a histidine purification tag
T1 sequence (P35590 22-759 limits assumed): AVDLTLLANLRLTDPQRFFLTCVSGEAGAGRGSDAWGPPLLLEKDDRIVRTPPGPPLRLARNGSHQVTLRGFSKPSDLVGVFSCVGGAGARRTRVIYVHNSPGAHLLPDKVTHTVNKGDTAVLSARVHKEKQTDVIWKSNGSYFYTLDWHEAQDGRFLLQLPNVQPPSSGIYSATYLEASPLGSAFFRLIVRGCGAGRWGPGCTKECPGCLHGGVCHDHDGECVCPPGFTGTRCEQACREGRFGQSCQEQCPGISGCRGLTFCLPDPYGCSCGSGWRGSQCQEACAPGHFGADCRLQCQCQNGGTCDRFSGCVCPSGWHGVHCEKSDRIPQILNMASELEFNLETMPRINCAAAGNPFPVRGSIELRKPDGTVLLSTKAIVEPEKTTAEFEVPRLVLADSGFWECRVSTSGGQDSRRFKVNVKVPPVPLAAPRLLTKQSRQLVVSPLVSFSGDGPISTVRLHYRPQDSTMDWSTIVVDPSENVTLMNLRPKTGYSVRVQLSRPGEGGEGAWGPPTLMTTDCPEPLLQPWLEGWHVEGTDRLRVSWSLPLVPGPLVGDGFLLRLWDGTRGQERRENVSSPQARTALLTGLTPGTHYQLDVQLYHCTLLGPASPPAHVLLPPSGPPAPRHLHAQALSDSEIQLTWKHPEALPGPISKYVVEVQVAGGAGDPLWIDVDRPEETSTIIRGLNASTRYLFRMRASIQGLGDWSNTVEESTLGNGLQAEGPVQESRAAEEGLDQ
Description: Recombinant human Tie-1/Fc was coated on a CM5 chip. The surface of the chip was first activated with a 7-minute pulse of 0.05 M NHS/0.2 M EDC, then Tie-1/Fc (2 μg/ml in 10 mM sodium acetate, pH 4.0) was run over the chip surface until 750 RUs were coated on the surface. All flow cells were subsequently deactivated with a 7-minute pulse of 1 M ethanolamine hydrochloride, pH 8.5. All further experiments were performed in HBS buffer.
The parental and the germlined E3b Fabs were prepared. A series of dilution (50, 25, 12.5, 6.25 and 3.125 nM) was prepared in HBS buffer. Samples were injected at 30 μl/min for 5.3 minutes using the KINJECT™ program. This was followed by a 10-minute dissociation phase, and the remaining Fab was stripped from the surface with a single 18-sec injection of 50 mM NaOH/1 M NaCl.
Sensorgrams were analyzed using the simultaneous ka/kd fitting program from the BIAEVALUATION™ software 3.1 assuming a 1:1 model.

[3] = target: T1, recombinant human Tie1-Fc; experiment: BIAcore, coated E3 IgGs with recombinant human Tie-1 Fc; assay type: binding; conditions: IgG, human Tie1 Fc
Description: The germlined E3 IgG1 stock solution 0.63 mg/ml was diluted 1/50 in a buffer of pH4.5 and the parental E3 IgG1 stock solution 0.56 mg/ml (2143-001) was diluted 1/50 in a buffer of pH 4.5. The IgG were directly coated onto a CM5 chip. The surface of the chips was activated with a 7 minute pulse of 0.05M NHS/0.2M EDC and the IgG was flowed over until 780RU germlined E3-IgG and 728 non germlined E3 IgG was coated onto the surface. All flow cells were subsequently deactivated with a 7 minute pulse of 1M ethanolamine hydrochloride pH 8.5. All analysis was performed in HBS buffer. Purified recombinant human Tie-1 Fc was diluted 1/28.7 in HBS to obtain a 400 nM stock solution. Serial dilutions were made to obtain 200 nM, 100 nM, 50 nM and 25 nM Tie-1 Fc stocks. For analysis of the association phase samples were injected at 30 μl/min for 8.3 minutes using kinject program. This was followed by a 40 minutes dissociation phase. Any antigen remaining associated to the surface was stripped from the IgG surface at a flow of 50 μl/min with two injections of 10 mM glycine pH 1.5 for 30 secods. All samples were run and analyzed in duplicate
Sensorgrams were analyzed using the simultaneous ka/kd fitting program with 1:1 model in the BIAEVALUATION™ software 3.1.

Tie1, sequence (P35590 22-1138): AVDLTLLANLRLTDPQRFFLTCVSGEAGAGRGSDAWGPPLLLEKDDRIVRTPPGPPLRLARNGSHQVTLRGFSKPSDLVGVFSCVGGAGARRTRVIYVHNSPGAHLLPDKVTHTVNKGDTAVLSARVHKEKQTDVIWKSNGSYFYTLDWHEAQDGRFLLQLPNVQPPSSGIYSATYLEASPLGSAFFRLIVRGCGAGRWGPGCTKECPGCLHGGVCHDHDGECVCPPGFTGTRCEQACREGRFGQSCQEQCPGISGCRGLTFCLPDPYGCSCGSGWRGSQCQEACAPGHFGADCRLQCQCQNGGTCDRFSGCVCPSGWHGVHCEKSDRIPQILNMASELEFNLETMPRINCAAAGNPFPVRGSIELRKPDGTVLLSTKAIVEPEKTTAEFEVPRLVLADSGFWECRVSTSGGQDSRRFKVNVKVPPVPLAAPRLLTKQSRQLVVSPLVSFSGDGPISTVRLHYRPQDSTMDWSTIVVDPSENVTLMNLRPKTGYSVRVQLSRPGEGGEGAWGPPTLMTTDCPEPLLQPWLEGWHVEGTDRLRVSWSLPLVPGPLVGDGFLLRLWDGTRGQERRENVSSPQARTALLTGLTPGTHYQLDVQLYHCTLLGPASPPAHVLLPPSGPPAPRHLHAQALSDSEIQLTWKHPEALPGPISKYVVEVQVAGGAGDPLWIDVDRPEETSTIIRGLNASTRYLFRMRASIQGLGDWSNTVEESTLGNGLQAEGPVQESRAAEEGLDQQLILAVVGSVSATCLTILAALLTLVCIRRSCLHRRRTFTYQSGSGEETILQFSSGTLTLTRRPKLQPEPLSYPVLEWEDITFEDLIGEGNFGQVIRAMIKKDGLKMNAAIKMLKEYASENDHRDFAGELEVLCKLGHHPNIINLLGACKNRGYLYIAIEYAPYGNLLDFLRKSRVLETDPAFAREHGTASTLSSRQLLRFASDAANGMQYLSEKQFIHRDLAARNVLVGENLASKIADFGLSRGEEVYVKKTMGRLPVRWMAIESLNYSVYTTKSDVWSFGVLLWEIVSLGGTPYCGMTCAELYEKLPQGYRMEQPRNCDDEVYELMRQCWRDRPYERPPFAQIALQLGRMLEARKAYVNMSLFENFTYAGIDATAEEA

B1: E3: human anti-Tie1 antibody from Fab phage library; HC SEQ ID NO:114, LC SEQ ID NO:116 (antibody, V domains shown)
VH: EVQLLESGGGLVQPGGSLRLSCAASGFTFSMYGMVWVRQAPGKGLEWVSVISPSGGNTGYADSVKGRFTISRDNSKNTLYLQVNSLRAEDTAVYYCARAPRGYSYGYYYWGQGTLVTVSSASTKGPSVFPLAPSSKSTSGG
VL: DIQMTQSPLSLSASVGDRVTITCRASQGIGHYLAWYQQKPGKVPKLLIYTASTLQSGVPSRFSGSGSGTDFTLTINSLQPEDVATYYCQQFNSYPHTFGQGTRLDIK
modifications: Synthetically generated peptide
[1]
  time of stimulation after which Tie1 is tyrosine phosphorylated: 10 to 30 min
[2]
  effect of germlining on the affinity against Tie-1/Fc: little or no effect on the affinity
[3]
  effect of germlining on binding activity: minimal impact on the binding activity
